The series deals with ROP18 in total lysate antigen of T. gondii RH (RH Ag) (Toxoplasma gondii RH strain) (UniProt Q2PAY2). Put plainly: direct ELAA (plate-based aptamer binding). Conditions: 50 ug/mL RH Ag coated; aptamer 50-500 nM; Direct ELAA: antigen coated in carbonate pH 9.6 overnight 4 C; 1% BSA block; biotin-aptamer in PBS, 0.5% glucose, 0.1% albumin, 1 M MgCl2 (so in the source), 1 h ….
UniProt Q2PAY2, sequence (Q2PAY2 whole entry): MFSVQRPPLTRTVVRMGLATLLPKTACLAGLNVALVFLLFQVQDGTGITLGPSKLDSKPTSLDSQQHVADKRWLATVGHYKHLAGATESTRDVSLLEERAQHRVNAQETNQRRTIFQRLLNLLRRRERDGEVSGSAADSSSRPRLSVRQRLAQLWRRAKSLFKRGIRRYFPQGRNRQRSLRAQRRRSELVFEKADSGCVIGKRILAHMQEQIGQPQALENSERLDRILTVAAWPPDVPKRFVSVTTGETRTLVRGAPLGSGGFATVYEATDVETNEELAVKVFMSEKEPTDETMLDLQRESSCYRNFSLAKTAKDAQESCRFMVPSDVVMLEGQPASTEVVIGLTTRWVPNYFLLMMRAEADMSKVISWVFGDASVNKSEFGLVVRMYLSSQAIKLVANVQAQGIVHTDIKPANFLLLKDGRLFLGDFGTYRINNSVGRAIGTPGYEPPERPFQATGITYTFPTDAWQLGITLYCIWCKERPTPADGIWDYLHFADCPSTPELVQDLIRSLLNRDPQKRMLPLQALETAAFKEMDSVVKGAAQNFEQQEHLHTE

For “CGCACCGATCCGGTGTTAATCTCGACGTCCCTTAAGTTTG [AP002]”, the Kd was 97.7 nM.

“TCCTGGCAGCGCTTTTGCTTGTTTGCTCTCGTACCTGTCC [AP001]” displayed a Kd of 62.7 nM.

Usually Kd stands for the concentration at which binding is half-saturated.

The record behind these values is PMC6863806.
